Where no end group is shown, it is not given here.

Test [1] deals with T1, DC-SIGN (DC-specific intercellular adhesion molecule 3-grabbing nonintegrin) (UniProt Q9NNX6 62-404, limits assumed).
T1 sequence (looked up): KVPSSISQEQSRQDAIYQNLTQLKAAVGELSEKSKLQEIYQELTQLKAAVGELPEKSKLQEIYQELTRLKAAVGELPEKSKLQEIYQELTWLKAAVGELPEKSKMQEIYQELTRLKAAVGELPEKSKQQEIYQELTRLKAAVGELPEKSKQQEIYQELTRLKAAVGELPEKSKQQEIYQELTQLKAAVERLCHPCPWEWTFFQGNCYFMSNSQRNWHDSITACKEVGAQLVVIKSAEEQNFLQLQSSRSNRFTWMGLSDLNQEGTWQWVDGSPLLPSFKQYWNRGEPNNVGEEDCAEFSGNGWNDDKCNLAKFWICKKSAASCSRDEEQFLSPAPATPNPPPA
Nature of the test: SPR, DC-SIGN immobilised on CM5 chip, equilibrium fit Req=Rmax/(1+(Kd/C)).

The target of test [2] is T2, Plasmodium falciparum MSP1-19 (C-terminal fragment of merozoite surface protein 1) (Plasmodium falciparum, UniProt Q8I0U8 1607-1699).
T2 construct: domain: MSP1-19; also called Pf MSP1-19; PfMSP1-19
T2 sequence: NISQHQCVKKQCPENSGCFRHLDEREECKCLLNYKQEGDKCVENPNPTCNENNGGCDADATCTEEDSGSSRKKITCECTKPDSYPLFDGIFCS
Put plainly: SPR, MSP1-19 immobilised on CM5 chip. In general terms: SPR reads the build-up and loss of mass on a sensor chip optically.

The target of test [3] is T3, CD4 (UniProt P01730 26-396).
T3 construct: Bought protein; also called CD4 (Protein Sciences Corp.)
Put plainly: SPR, CD4 immobilised on CM5 chip, equilibrium fit Req=Rmax/(1+(Kd/C)).

B1: GST-Azu 88-113 (GST fused to azurin amino acids 88 to 113) (other)
chain: {GST}-GSGEKDSVTFDVSKLKEGEQYMFFCT
modifications: also: GST fusion, vector linker residues not given here
notes: not shown: glutathione S-transferase from the commercial vector pGEX-5X
Broadly, the Kd is the concentration at which binding is half-saturated. A higher Kd goes with weaker binding. On to B1, for which, in test [1], binding was characterised by a dissociation constant (Kd) of 5.98 nM.

B2: GST-Azu 36-128 (GST fused to azurin amino acids 36 to 128) (other)
chain: PGNLPKNVMGHNWVLSTAADMQGVVTDGMASGLDKDYLKPDDSRVIAHTKLIGSGEKDSVTFDVSKLKEGEQYMFFCTFPGHSALMKGTLTLK
notes: The azurin fragment was cloned into the BamHI/EcoRI sites of pGEX-5X; not shown: glutathione S-transferase from the commercial vector pGEX-5X
Take B2: the figures for the Kd in test [2] and in test [3] were 24.5 nM and 0.34 nM, respectively.

B3: GST-Azu 36-89 (GST fused to azurin amino acids 36 to 89) (other)
chain: {GST}-PGNLPKNVMGHNWVLSTAADMQGVVTDGMASGLDKDYLKPDDSRVIAHTKLIGS
modifications: also: GST fusion, vector linker residues not given here
notes: also called pGST-azu 36-89 product; not shown: glutathione S-transferase from the commercial vector pGEX-5X
Molecule B3 gave a Kd in test [2] of 20.9 nM. This lies in the double-digit nanomolar range.
